Consider 3 molecules from paper PMC10873205 (Nature Structural & Molecular Biology, 2024).

In experiment [1] the target is T1, UBE2A (UniProt P49459 1-152).
T1 construct: also called UBE2A WT; source: E. coli BL21(DE3), purified (glutathione Sepharose 4B or Ni-NTA, SEC); not shown: GST (from the vector pGEX6P-3), N-terminal, cleaved
Briefly: ITC; UBR4 construct in the cell (74 μM), UBE2A in the syringe at tenfold higher concentration; 25 °C; 0.4 µl then 13 injections of 3 µl; UBE2A into buffer subtracted; single site binding model. The settings on record: both partners purified. In general terms: In ITC the heat of successive injections is recorded.

Experiment [2] deals with UBE2A (UniProt P49459 1-152). The description is as above. The note with it: both partners purified.

B1: UBR4_(xtal) (UBR4 residues 4,730–5,183) (domain or fragment)
chain: AIQHPGTQVLIGTDSIPNLHKLEQVSSDEGIGTLAENLLEALREHPDVNKKIDAARRETRAEKKRMAMAMRQKALGTLGMTTNEKGQVVTKTALLKQMEELIEEPGLTCCICREGYKFQPTKVLGIYTFTKRVALEEMENKPRKQQGYSTVSHFNIVHYDCHLAAVRLARGREEWESAALQNANTKCNGLLPVWGPHVPESAFATCLARHNTYLQECTGQREPTYQLNIHDIKLLFLRFAMEQSFSADTGGGGRESNIHLIPYIIHTVLYVLNTTRATSREEKNLQGFLEQPKEKWVESAFEVDGPYYFTVLALHILPPEQWRATRVEILRRLLVTSQARAVAPGGATRLTDKAVKDYSAYRSSLLFWALVDLIYNMFKKVPTSNTEGGWSCSLAEYIRHNDMPIYEAADKALKTFQEEFMPVETFSEFLDVAGLLSEITDPESFLKDLLNSVP
notes: UBR4, human, residues 4,730–5,183 (runs to the native C-terminus); holds the unresolved N-terminal region, the hemiRING zinc finger and the UZI subdomain; The GST tag is said to be cleaved for crystallization and autoubiquitination assays; Cloning strategy is in Supplementary Data 1; also called UBR4_(4730–5183); hemiRING-UZI module construct; source: E. coli BL21(DE3), purified (glutathione …)
By Kd is commonly meant the concentration at which binding is half-saturated. A low value points to higher affinity. The molecule B1 had a dissociation constant Kd in experiment [1] of 1.19 µM.

B2: UBR4_(xtal) Ser4930Arg (domain or fragment)
chain: AIQHPGTQVLIGTDSIPNLHKLEQVSSDEGIGTLAENLLEALREHPDVNKKIDAARRETRAEKKRMAMAMRQKALGTLGMTTNEKGQVVTKTALLKQMEELIEEPGLTCCICREGYKFQPTKVLGIYTFTKRVALEEMENKPRKQQGYSTVSHFNIVHYDCHLAAVRLARGREEWESAALQNANTKCNGLLPVWGPHVPERAFATCLARHNTYLQECTGQREPTYQLNIHDIKLLFLRFAMEQSFSADTGGGGRESNIHLIPYIIHTVLYVLNTTRATSREEKNLQGFLEQPKEKWVESAFEVDGPYYFTVLALHILPPEQWRATRVEILRRLLVTSQARAVAPGGATRLTDKAVKDYSAYRSSLLFWALVDLIYNMFKKVPTSNTEGGWSCSLAEYIRHNDMPIYEAADKALKTFQEEFMPVETFSEFLDVAGLLSEITDPESFLKDLLNSVP
notes: also called UBR4 Ser4930Arg; S4930R; source: E. coli BL21(DE3), purified (glutathione sepharose 4B, SEC)
B2: the binding result in experiment [1] is “binds”.

B3: UBR4_(4828–5183) (domain or fragment)
chain: EELIEEPGLTCCICREGYKFQPTKVLGIYTFTKRVALEEMENKPRKQQGYSTVSHFNIVHYDCHLAAVRLARGREEWESAALQNANTKCNGLLPVWGPHVPESAFATCLARHNTYLQECTGQREPTYQLNIHDIKLLFLRFAMEQSFSADTGGGGRESNIHLIPYIIHTVLYVLNTTRATSREEKNLQGFLEQPKEKWVESAFEVDGPYYFTVLALHILPPEQWRATRVEILRRLLVTSQARAVAPGGATRLTDKAVKDYSAYRSSLLFWALVDLIYNMFKKVPTSNTEGGWSCSLAEYIRHNDMPIYEAADKALKTFQEEFMPVETFSEFLDVAGLLSEITDPESFLKDLLNSVP
modifications: one Zn2+ bound (Cys4838, Cys4841, His4887, Cys4890). The C-terminal limit 5183 is taken from the Fig. 7 title and legend and the structure section; '4828-5130' in the ITC text is treated as a …
Take B3: binding in experiment [2] was put at a Kd of 89.8 µM.
